Measured values from US20230203172A1 (SHANGHAI MABGEEK BIOTECH, published 2023).
Where a chain is given by its changes, count along the chain named.

B1: murine anti-hIL-4R alpha monoclonal antibody 59 (antibody, V domains shown)
VH: EVQLVESGGGLVKPGGSLKLSCAASGFTFSDYGIHWVRQAPDKGLEWVAYIRSDSSIIHYADTVKGRFTISRDNAKNTLFLQMTSLRSEDTAMYYCTRGRDRGYFDYWGQGTTLTVSS
VL: QIVLTQSPALMSASPGEKVTMTCSASSSVSYMYWYQQKPRSSPKPWIYLTSNLASGVPARFSGSGSGTSYSLTISSMEAEDAATYYCQQWTSIPFTFGSGTKLEIK
notes: Mouse hybridoma antibody purified on ProteinG
B2: murine anti-hIL-4R alpha monoclonal antibody 81 (antibody, V domains shown)
VH: DVQLQQSGPELLKPGASVKIPCQASGYTFTDYNMDWVKQSHGKNLEWIGNINPNNGGTFYNQKFKGKATLTVDKSSSTAYMELRSLTSEDTAVYYCGRGGLRRRGFMDYWGQGTSVTVSS
VL: QIVLSQSPAILSASPGEKVTMTCRASSSVIYIHWYQQKPGSSPKPWIYAASNLASGVPARFSGSGSGTSYSLTISRVEAEDAATYYCQQWSVNPPTFGGGTKLEIK
notes: as for B1
B3: murine anti-hIL-4R alpha monoclonal antibody 236 (antibody, V domains shown)
VH: EVQLQQSGPELVKPGASVKIPCKASGYTFTDYNVDWVKQSHGQSLDWIGTINPNNGGILSNQKFKGKATLTVDTSSSTAYMELRSLTSEDTAVYYCGRGGLRRRGFMDYWGQGTSVTVSS
VL: B2 VL with Q36Y, P39A, A54P, V92S
notes: as for B1
B4: murine anti-hIL-4R alpha monoclonal antibody 228 (antibody, V domains shown)
VH: B2 VH
VL: B2 VL
notes: as for B1
B5: murine anti-hIL-4R alpha monoclonal antibody 83 (antibody, V domains shown)
VH: EVQLQQSGPELVKPGASVKIPCKASGYTFTDYNMDWVKQSRGKSLEWIGTINPNNGDTMYNQKFKDKATLTVDKSSTTAYMELRSLTSEDTAVYYCGRGGLRRRGFMDYWGRGTSVTVSS
VL: B2 VL with A50I, S71F, A79V
notes: as for B1
B6: murine anti-hIL-4R alpha monoclonal antibody 54 (antibody, V domains shown)
VH: B3 VH with V34M, Q43K, D46E, T50D, G57N, S60F, T74K, M81V
VL: B2 VL with I30S, I32M, V92S
notes: as for B1
B7: murine anti-hIL-4R alpha monoclonal antibody 75 (antibody, V domains shown)
VH: B3 VH with V34M, Q43K, D46E, T50D, G57N, S60F, T74K, M81V
VL: B2 VL with I30S, I32M, V92S
notes: as for B1
B8: murine anti-hIL-4R alpha monoclonal antibody 57 (antibody, V domains shown)
VH: B3 VH with V34M, Q43K, D46E, T50D, G57N, S60F, T74K, M81V
VL: B2 VL with I30S, I32M, V92S
notes: as for B1
B9: murine anti-hIL-4R alpha monoclonal antibody 55 (antibody, V domains shown)
VH: B2 VH
VL: B2 VL with A59V
notes: as for B1
B10: murine anti-hIL-4R alpha monoclonal antibody 88 (antibody, V domains shown)
VH: B2 VH with N50T, K63N, Y80C, E89D
VL: B2 VL
notes: as for B1
B11: murine anti-hIL-4R alpha monoclonal antibody 64 (antibody, V domains shown)
VH: B2 VH with D1E, L12V, P21S, Q23K, N44S, N50T, I51T, F59L, G97A, M107V
VL: B2 VL with I30N, I32L, A50T, V92S
notes: as for B1
B12: murine anti-hIL-4R alpha monoclonal antibody 100 (antibody, V domains shown)
VH: B2 VH with M107L
VL: B2 VL with A50V, A59V
notes: as for B1
B13: murine anti-hIL-4R alpha monoclonal antibody 84 (antibody, V domains shown)
VH: B2 VH with P9R, P14R
VL: B2 VL
notes: as for B1
B14: murine anti-hIL-4R alpha monoclonal antibody 29 (antibody, V domains shown)
VH: EVQLVESGGGLVKPGGSLKLSCAASGFTFSDYGMHWVRQAPEKGLEWVAYINSGSSKIYHADTVKGRFTISRDNAKNTLFLQMTSLRSEDTAMYYCARFPTVVAARYPMDYWGQGTSVTVSS
VL: DIQMTQTPSSLSASLGDRVTISCRASQDISNYLNWYQQKPDGTVKLLIYFTSRLHSGVPSRFSGGGSGTDYSLTISNLEQEDIATYFCQQGNTLPYTFGGGTKLEIK
notes: as for B1
B15: murine anti-hIL-4R alpha monoclonal antibody 136 (antibody, V domains shown)
VH: B14 VH with N52S, S56T, K57T, H60Y, A75G, F99I, P100S, A105K, P108A
VL: B14 VL with P8A, F50Y, G65S, G91I, T93A, Y96L, G100A, I106L
notes: as for B1
B16: murine anti-hIL-4R alpha monoclonal antibody 120 (antibody, V domains shown)
VH: B14 VH with N52S, S56T, K57T, H60Y, A75G, F99I, P100S, A105K, P108A
VL: B14 VL with P8A, F50Y, G65S, G91I, T93A, Y96L, G100A, I106L
notes: as for B1
B17: murine anti-hIL-4R alpha monoclonal antibody 131 (antibody, V domains shown)
VH: B14 VH with N52S, K57T, H60Y, F99I, P100S, A105K, P108A
VL: B14 VL with P8A, F50Y, G65S, Q90E, G91V, T93M, Y96L, G100A, I106L
notes: as for B1
B18: humanized anti-hIL-4R alpha monoclonal antibody 228-Hu (antibody, human IgG4 S228P, kappa, V domains shown)
VH: QVQLVQSGAEVKKPGASVKVSCKASGYTFTDYNMDWVRQAPGQNLEWIGNINPNNGGTFYNQKFKGRATLTVDKSASTAYMELSSLRSEDTAVYYCARGGLRRRGFMDYWGQGTLVTVSS
VL: EIVLTQSPATLSLSPGERATLSCRASSSVIYIHWYQQKPGQSPRPWIYAASNLASGVPARFSGSGSGTDYTLTISRLEPEDFAVYYCQQWSVNPPTFGQGTKLEIKR
notes: Humanized, human IgG4 constant region; expressed in HEK293, purified on ProteinA
B19: Dupilumab (antibody, V domains shown)
VH: EVQLVESGGGLEQPGGSLRLSCAGSGFTFRDYAMTWVRQAPGKGLEWVSSISGSGGNTYYADSVKGRFTISRDNSKNTLYLQMNSLRAEDTAVYYCAKDRLSITIRPRYYGLDVWGQGTTVTVSS
VL: DIVMTQSPLSLPVTPGEPASISCRSSQSLLYSIGYNYLDWYLQKSGQSPQLLIYLGSNRASGVPDRFSGSGSGTDFTLKISRVEAEDVGFYYCMQALQTPYTFGQGTKLEIKR
B20: humanized anti-hIL-4R alpha monoclonal antibody 29-Hu (antibody, human IgG4 S228P, kappa, V domains shown)
VH: B14 VH with K13Q, K19R, E42G, T78S, F80Y, T84N, S88A, M93V, S117L
VL: DIQMTQSPSSLSASVGDRVTITCRASQDISNYLNWYQQKPGKAPKLLIYFTSRLHSGVPSRFSGSGSGTDYTLTISSLQPEDFATYYCQQGNTLPYTFGQGTKLEIKR
notes: as for B18

target: T1, human IL-4R alpha on cells (TF-1 cells; human peripheral blood mononuclear cells) (human, UniProt P24394 26-825); test: cell-based or functional assay

IC50 (ng/ml), inhibition of IL-4-induced TF-1 proliferation [ng/mL] | Binder
43.7 | B1
24.6 | B2
22.4 | B3
34.2 | B4
36.6 | B5
57 | B6
29 | B7
23.6 | B8
19 | B9
67.2 | B10
43.7 | B11
53.7 | B12
31.3 | B13
65.3 | B14
49.6 | B15
59.7 | B16
47.1 | B17

target: T2, hIL-4R alpha-ECD-Flag (human, UniProt P24394 26-232); test: SPR, Biacore T200, antibody captured on Protein-A chip, hIL-4R alpha-ECD-Flag as analyte
T2 construct: range 26-232; Analyte of the Biacore experiment
Procedure: The affinity of six purified humanized antibodies was detected by Biacore T200 (GE healthcare), with the reference antibody Dupilumab as a control. The specific experimental method was as follows: a Protein-A CMS sensor chip (GE healthcare) was used, with FC1 (Flow cell 1) as a reference channel, and FC2 (Flow cell 2) as a sample channel. Humanized antibodies or control antibody were captured in the FC2 channel, and then hIL-4R alpha-ECD-Flag at different concentrations was injected. Cycling conditions were as follows: an analyte was injected into all channels of FCs at 50 μl/min for 4 min, with a dissociation time of 20 min, and 6M guanidine hydrochloride (Sinopharm Chemical Reagent Co., Ltd.) was injected at a rate of 10 μl/min for 30 s for surface regeneration. Then, signal differences and affinity for interaction between captured antibodies and non-captured antibodies were calculated by Biacore T200 Evaluation Software Ver 1.0.

Kd [nM] | koff [s⁻¹] | kon [M⁻¹ s⁻¹] | Binder
0.912 | 0.000658 | 721000 | B18
0.403 | 0.00018 | 446000 | B19
0.526 | 0.00021 | 398000 | B20

target: T1, human IL-4R alpha on cells (TF-1 cells; …); test: cell-based or functional assay; remark: another data set of the same source

IC50 (ng/ml), inhibition of IL-4-induced TF-1 cell proliferation [ng/mL] | Binder
156 | B20

target: T3, hIL-4R alpha-ECD-Fc (human, UniProt P24394 26-232); test: ELISA, plate coated with 1 ug/ml hIL-4R alpha-ECD-Fc
T3 construct: range 26-232; hFc at the C-terminus of the ECD; also called hIL4R alpha-ECD-hFc; hIL-4R alpha-Fc antigen
Procedure: The titer was tested by ELISA: an ELISA plate was coated with the hIL-4R alpha ECD-Fc antigen at a concentration of 1 μg/ml, 100 μl per well, and coated overnight at 4° C. The plates were washed twice with PBST (PBS containing 0.5% Tween-20) and then pat-dried. Each well was blocked with 200 μl of coating solution containing 1% BSA, blocked at room temperature for 4 h, pat-dried, and stored in a refrigerator at −20° C. for later use. During testing, 100 μl of mouse serum at different concentrations was added to each well of the ELISA plate, with two replicate wells, for incubation at room temperature for 1.5 h. The wells were washed with PBST for 3 times and then pat-dried. Then 100 μl of rabbit anti-mouse IgG labeled with HRP diluted with PBST by 1:10000 (purchased from Sigma) was added and the plates were incubated at room temperature for 1 h. The wells were washed with PBST for 3 times and then pat-dried. Then 100 μl of chromogenic solution was added to each well (an ELISA chromogenic solution A was mixed with a chromogenic solution B at a volume ratio of 1:1 before use) for a chromogenic reaction, and then 100 μl of 2M H2SO4 stopping solution was added to each well to terminate the reaction. The OD value of each well was immediately measured at 450 nm with a microplate reader (Molecular Device).
Optimized murine anti-hIL-4R alpha monoclonal antibodies were purified by a ProteinG affinity chromatography column and quantified by BCA. The EC50 of anti-hIL-4R alpha monoclonal antibodies binding to hIL-4R alpha was tested by ELISA. The testing method is as described in Example 3. An ELISA plate was coated with 1 μg/ml of hIL-4R alpha-ECD-Fc antigen, and then murine anti-hIL-4R alpha monoclonal antibodies at different concentrations were added for testing.

EC50 [µg/mL] | Binder
0.0117 | B1
0.0096 | B2
0.0115 | B3
0.0131 | B4
0.0123 | B5
0.0099 | B6
0.0129 | B7
0.0079 | B8
0.0089 | B9
0.0091 | B10
0.0106 | B11
0.012 | B12
0.0122 | B13
0.0076 | B14
0.0113 | B15
0.01 | B16
0.0138 | B17
